These results are taken from paper PMC4565748.

Assay [1] addresses complement C3b, site-specifically biotinylated (human) (UniProt P01024). The assay can be described thus: SPR. A general note: SPR reads the build-up and loss of mass on a sensor chip optically.
For assay [2] the target is unchanged. Nature of the assay: SPR. The source holds these as a separate data set.
Assay [3] has the same target. Nature of the assay: AlphaScreen or HTRF. For orientation: In Alpha technology, singlet oxygen from a donor bead excites a nearby acceptor bead.

Sequence of complement C3b, site-specifically biotinylated (human) (P01024 23-667, chain 1 of 2): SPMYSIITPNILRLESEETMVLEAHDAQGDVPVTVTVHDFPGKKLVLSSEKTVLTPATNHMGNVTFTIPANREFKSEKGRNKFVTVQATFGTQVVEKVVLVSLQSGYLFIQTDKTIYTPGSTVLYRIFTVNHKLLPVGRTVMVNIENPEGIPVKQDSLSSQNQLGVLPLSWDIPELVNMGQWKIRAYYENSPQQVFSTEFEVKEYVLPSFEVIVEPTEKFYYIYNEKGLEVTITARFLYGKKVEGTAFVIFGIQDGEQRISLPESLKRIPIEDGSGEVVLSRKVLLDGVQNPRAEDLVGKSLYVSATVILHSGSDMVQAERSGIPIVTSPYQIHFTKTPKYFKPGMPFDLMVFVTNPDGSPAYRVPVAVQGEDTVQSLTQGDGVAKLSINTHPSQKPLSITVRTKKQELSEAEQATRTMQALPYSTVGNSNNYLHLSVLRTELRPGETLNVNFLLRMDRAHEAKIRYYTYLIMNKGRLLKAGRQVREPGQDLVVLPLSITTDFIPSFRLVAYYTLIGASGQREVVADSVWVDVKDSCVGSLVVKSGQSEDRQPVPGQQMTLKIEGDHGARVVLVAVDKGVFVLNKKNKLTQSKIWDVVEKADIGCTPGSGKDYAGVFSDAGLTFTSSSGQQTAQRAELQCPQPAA
Sequence of complement C3b, site-specifically biotinylated (human) (P01024 749-1663, chain 2 of 2): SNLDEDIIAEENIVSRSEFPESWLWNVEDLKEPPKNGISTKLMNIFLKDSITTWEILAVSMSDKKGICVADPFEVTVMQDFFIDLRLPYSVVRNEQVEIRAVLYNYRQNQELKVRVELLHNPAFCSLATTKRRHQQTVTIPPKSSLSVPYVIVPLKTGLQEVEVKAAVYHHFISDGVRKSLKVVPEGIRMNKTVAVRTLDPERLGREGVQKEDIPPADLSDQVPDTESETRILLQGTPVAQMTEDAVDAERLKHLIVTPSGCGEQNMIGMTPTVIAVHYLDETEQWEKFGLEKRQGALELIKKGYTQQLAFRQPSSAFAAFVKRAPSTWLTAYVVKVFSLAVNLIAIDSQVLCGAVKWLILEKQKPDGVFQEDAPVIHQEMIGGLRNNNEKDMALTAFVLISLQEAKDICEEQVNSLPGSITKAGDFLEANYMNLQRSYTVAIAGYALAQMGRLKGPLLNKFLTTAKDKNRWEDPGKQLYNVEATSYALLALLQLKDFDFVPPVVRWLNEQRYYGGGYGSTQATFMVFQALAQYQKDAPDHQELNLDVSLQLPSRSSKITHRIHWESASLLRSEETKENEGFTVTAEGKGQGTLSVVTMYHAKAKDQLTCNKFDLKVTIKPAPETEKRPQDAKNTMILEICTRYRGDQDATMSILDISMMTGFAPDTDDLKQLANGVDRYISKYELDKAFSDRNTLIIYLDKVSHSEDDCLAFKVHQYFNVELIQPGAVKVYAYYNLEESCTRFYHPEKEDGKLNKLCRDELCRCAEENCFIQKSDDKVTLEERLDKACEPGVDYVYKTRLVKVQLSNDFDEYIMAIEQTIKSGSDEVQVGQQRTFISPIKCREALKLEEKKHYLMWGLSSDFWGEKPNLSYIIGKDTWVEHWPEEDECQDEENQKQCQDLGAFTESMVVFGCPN

By Kd is commonly meant the concentration at which binding is half-saturated. Low readings indicate tighter binding, high ones weaker binding. The term koff denotes the first-order rate constant of dissociation. The low end stands for slow dissociation, the high end for fast dissociation. The term kon denotes a measure of how fast the partners come together. Higher therefore signals faster complex formation. In assay [1], SCIN-B.R44A (natural protein) gave a Kd of 2600 nM, a dissociation rate constant (koff) of 0.35 s⁻¹ and a kon of 140000 M⁻¹ s⁻¹. Moreover, in assay [2], the equilibrium dissociation constant (Kd) is 2500 nM.

For SCIN-B.R44A.Y51A (natural protein), in assay [1], the Kd was 5100 nM, the dissociation rate constant (koff) stood at 0.51 s⁻¹ and the kon was found to be 110000 M⁻¹ s⁻¹. In assay [3], the Kd was 3500 nM. This substance also registered an equilibrium dissociation constant (Kd) in assay [2] of 2500 nM.

With SCIN-B.Y51A (natural protein), the dissociation constant Kd is 810 nM in assay [1], 900 nM in assay [3] and 1000 nM in assay [2].

With “staphylococcal complement inhibitor SCIN-B, full-length wild type (natural protein)”, in assay [1], the Kd amounted to 202 nM and the on-rate (kon) stood at 520000 M⁻¹ s⁻¹. In assay [2], this substance displayed a Kd of 390 nM.
